According to US20110111406A1 (published 2011):
Where a chain is given by its changes, count along the chain named. Like-named read-outs stand apart in the source and are kept apart here. Values belong to the binder of their own block, whether it stands above or below them.

Experiments:
human IL-6 (Toray) [1] = molecular target: T1, human IL-6 (Toray) (human, UniProt P05231 30-212); assay: Biacore T100, antibody captured on protein A/G, human IL-6 as analyte, 37C; ratio of KD at pH 5.5 to pH 7.4
T1 construct: also called human interleukin-6
Method: (§1) Kinetic analysis of antigen-antibody reactions at pH 5.5 and pH 7.4 was carried out using Biacore T100 (GE Healthcare) for the three types of antibodies prepared as mentioned above: Anti-IL6 wild type, Anti-IL6 clone 1, and Anti-IL-6 clone 2 (buffer: DPBS(−) (pH 7.4 or pH 5.5), 150 mM NaCl). The antibodies were bound to a sensor chip on which recomb-protein A/G (Pierce) was immobilized by amine coupling, and then human IL-6 (Toray) adjusted to an appropriate concentration was injected on the chip as an analyte. All the measurements were carried out at 37° C. Association rate constants kₐ (1/Ms) and dissociation rate constants kd (1/s) were calculated using Biacore T100 Evaluation Software (GE Healthcare), and dissociation constants KD (M) were calculated based on those values (Table 14). Furthermore, the ratio of affinity at pH 5.5 and pH 7.4 was calculated for each clone to evaluate the pH-dependent binding.

human IL-6 (Toray) [2] = molecular target: T1, human IL-6 (Toray); assay: Biacore T100, human IL-6 as analyte; KD(pH 5.5)/KD(pH 7.4) compared with Anti-IL6 wild type
Method: as §1

[3] = molecular target: T2, recombinant soluble human IL-6 receptor (SR344) (human, UniProt P08887 20-344); assay: Biacore T100, biotinylated SR344 immobilized via streptavidin (membrane-type IL-6 receptor model), antibody as analyte; ratio of kd at pH 5.8 to pH 7.4
T2 construct: In the 'membrane-type IL-6 receptor' Biacore assays the same SR344 was biotinylated and immobilized via streptavidin; also called soluble IL-6 receptor; membrane-type IL-6 receptor (as biotinylated SR344 immobilized on the sensor chip)
T2 sequence (looked up): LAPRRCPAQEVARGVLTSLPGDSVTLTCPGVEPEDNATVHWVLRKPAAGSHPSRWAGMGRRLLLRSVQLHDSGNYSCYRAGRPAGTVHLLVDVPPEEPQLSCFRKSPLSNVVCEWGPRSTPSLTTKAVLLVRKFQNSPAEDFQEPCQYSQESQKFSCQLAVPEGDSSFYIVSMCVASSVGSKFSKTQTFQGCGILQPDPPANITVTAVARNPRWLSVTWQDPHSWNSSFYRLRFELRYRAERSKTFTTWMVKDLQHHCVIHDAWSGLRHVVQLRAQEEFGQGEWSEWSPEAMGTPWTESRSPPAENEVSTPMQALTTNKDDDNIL
Method: (§2) Binding to the membrane-type IL-6 receptor was evaluated by evaluating binding to the IL-6 receptor immobilized on a sensor chip. SR344 was biotinylated in accordance with a method known among persons with ordinary skill in the art, and the biotinylated SR344 was immobilized on the sensor chip via streptavidin using the affinity between streptavidin and biotin. All the measurements were carried out at 37° C. The mobile phase buffer was 10 mM MES (pH 5.8), 150 mM NaCl and 0.05% Tween 20.
(§3) The pH-dependently-binding clones were injected under the condition of pH 7.4 to allow them to bind to SR344, and then, the pH-dependent dissociation of each clone at the pH of the mobile phase, pH 5.8, was observed. The results are shown in FIG. 21 (results for Fv1-M71, Fv1-M73, Fv3-M71, and Fv3-M73 are shown in FIG. 21, while results for other clones are shown in FIGS. 17 and 19). Analyses were carried out in the same manner as in Example 10 and the pH dependencies of the dissociation rate constants of all of the eleven types of clones are shown in Table 12.

[4] = molecular target: T2, recombinant soluble human IL-6 receptor …; assay: as above; remark: listed apart in the source
Method: as §2, §3

[5] = molecular target: T2, recombinant soluble human IL-6 receptor …; assay: Biacore T100, SR344 as analyte; KD(pH5.8)/KD(pH7.4) compared with WT
Method: (§4) Kinetic analyses of antigen-antibody reactions at pH 5.8 and pH 7.4 were carried out using Biacore T100 (GE Healthcare) on the four antibodies: humanized PM1 antibody (WT) and H3pI/L73, CLH5/L73, and H170/L82 produced in Examples 2 and 4 (buffer: 10 mM MES (pH 7.4 or pH 5.8), 150 mM NaCl, and 0.05% Tween 20). Various antibodies were bound onto a sensor chip immobilized with recomb-protein A/G (Pierce) by amine coupling. SR344 adjusted to concentrations of 9.8 to 400 nM was injected to the chip as an analyte. […] All the measurements were carried out at 37° C. Association rate constants kₐ (1/Ms) and dissociation rate constants kd (1/s) were calculated using Biacore T100 Evaluation Software (GE Healthcare), and dissociation constants KD (M) were calculated on the basis of those values (Table 5). Moreover, the ratio of the affinities at pH 5.8 and pH 7.4 were calculated for each clone to evaluate pH-dependent binding. All the measurements were carried out at 37° C.

[6] = molecular target: T2, recombinant soluble human IL-6 receptor …; assay: Biacore T100, antibody captured on protein A/G, SR344 as analyte, 37C; ratio of KD at pH 5.8 to pH 7.4
Method: as §4

[7] = molecular target: T2, recombinant soluble human IL-6 receptor …; assay: Biacore T100, antibody captured on protein A/G, SR344 as analyte, 37C; ratio of kd at pH 5.8 to pH 7.4
Method: (§5) Kinetic analysis of antigen-antibody reactions at pH 7.4 and pH 5.8 was carried out using Biacore T100 (GE Healthcare) for the four types of antibodies prepared: WT-IgG1, H54/L28-IgG1, H170/L82-IgG1, and Fv4-IgG1(buffer: 10 mM MES (pH 7.4 or pH 5.8), 150 mM NaCl, 0.05% Surfactant-P20). The antibodies were bound to a sensor chip on which recomb-protein A/G (Pierce) was immobilized by amine coupling, and SR344 adjusted to an appropriate concentration was injected therein as an analyte. The association with and dissociation from SR344 of each type of antibody were observed on a real-time basis. All the measurements were carried out at 37° C. Association rate constants kₐ (1/Ms) and dissociation rate constants kd (1/s) were calculated using Biacore T100 Evaluation Software (GE Healthcare), and dissociation constants KD (M) were calculated based on those values (Table 17).

[8] = molecular target: T2, recombinant soluble human IL-6 receptor …; assay: Biacore T100, antibody captured on protein A/G, SR344 as analyte, 37C; ratio of KD at pH 5.8 to pH 7.4; remark: listed apart in the source
Method: as §5

[9] = molecular target: T2, recombinant soluble human IL-6 receptor …; assay: Biacore T100, biotinylated SR344 immobilized via streptavidin (membrane-type IL-6 receptor model), antibody as analyte; ratio of kd at pH 5.8 to pH 7.4; remark: listed apart in the source
Method: as §2, §3

B1: Anti-IL6 wild type (antibody, human IgG1, kappa, V domains shown)
VH: EVQLVESGGKLLKPGGSLKLSCAASGFTFSSFAMSWFRQSPEKRLEWVAEISSGGSYTYYPDTVTGRFTISRDNAKNTLYLEMSSLRSEDTAMYYCARGLWGYYALDYWGQGTSVTVSS
VL: QIVLIQSPAIMSASPGEKVTMTCSASSSVSYMYWYQQKPGSSPRLLIYDTSNLASGVPVRFSGSGSGTSYSLTISRMEAEDAATYYCQQWSGYPYTFGGGTKLEIKR
notes: also called WT (anti-IL-6 antibody of WO 2004/039826)
KD(pH 5.5)/KD(pH 7.4) (human IL-6 (Toray) [1]): 0.8

B6: H54/L28-IgG1 (antibody, V domains shown)
VH: QVQLQESGPGLVKPSETLSLTCAVSGYSISDDQAWSWVRQPPGEGLEWIGYISYSGITNYNPSLKGRVTISRDTSKNQFSLKLSSVTAADTAAYYCARSLARTTAMDYWGEGTLVTVSS
VL: DIQMTQSPSSLSASVGDSVTITCQASQDISSYLNWYQQKPGKAPELLIYYGSELHSGVPSRFSGSGSGTDFTFTISSLEAEDAATYYCQQGNSLPYTFGQGTKVEIE
notes: tested as IgG1
kd(pH 5.8)/kd(pH 7.4) [7]: 2
KD(pH5.8)/KD(pH7.4) [8]: 0.7

B7: Fv4-IgG1 (antibody)
heavy: not shown
light: DIQMTQSPSSLSASVGDSVTITCQASTDISSHLNWYQQKPGKAPELLIYYGSHLLSGVPSRFSGSGSGTDFTFTISSLEAEDAATYYCGQGNRLPYTFGQGTKVEIERTVAAPSVFIFPPSDEQLKSGTASVVCLLNNFYPREAKVQWKVDNALQSGNSQESVTEQDSKDSTYSLSSTLTLSKADYEKHKVYACEVTHQGLSSPVTKSFNRGEC
notes: also called VH3-IgG1/VL3-CK
kd(pH 5.8)/kd(pH 7.4) [7]: 38.8
kd(pH 5.8)/kd(pH 7.4) [9]: 5.56
kd(pH 5.8)/kd(pH 7.4) [3]: 5.56
kd(pH 5.8)/kd(pH 7.4) [4]: 5.56
KD(pH5.8)/KD(pH7.4) [8]: 27.3

B8: humanized PM1 antibody (wild type, WT) (antibody, human IgG1, kappa, V domains shown)
VH: QVQLQESGPGLVRPSQTLSLTCTVSGYSITSDHAWSWVRQPPGRGLEWIGYISYSGITTYNPSLKSRVTMLRDTSKNQFSLRLSSVTAADTAVYYCARSLARTTAMDYWGQGSLVTVSS
VL: DIQMTQSPSSLSASVGDRVTITCRASQDISSYLNWYQQKPGKAPKLLIYYTSRLHSGVPSRFSGSGSGTDFTFTISSLQPEDIATYYCQQGNTLPYTFGQGTKVEIKR
notes: Tested as IgG1; also called WT-IgG1; H(WT)/L(WT)
kd(pH 5.8)/kd(pH 7.4) [7]: 2.9
kd(pH 5.8)/kd(pH 7.4) [3]: 1
kd(pH 5.8)/kd(pH 7.4) [4]: 1
KD(pH5.8)/KD(pH7.4) [8]: 1.6
KD(pH5.8)/KD(pH7.4) [6]: 2.4

Continued, values first:

KD(pH 5.5)/KD(pH 7.4) (human IL-6 (Toray) [1]): 10.3
pH-dependent binding ability relative to WT (human IL-6 (Toray) [2]): 10 times
B2: Anti-IL6 clone 1 (antibody, human IgG1, kappa, V domains shown)
VH: B1 VH with F32H, Y60H, D62H, Y103H
VL: B1 VL with L53H, Q89H, Y93H
notes: H chain (c1) and L chain (c1)

KD(pH 5.5)/KD(pH 7.4) (human IL-6 (Toray) [1]): 13.5
pH-dependent binding ability relative to WT (human IL-6 (Toray) [2]): 10 times
B3: Anti-IL-6 clone 2 (antibody, human IgG1, kappa, V domains shown)
VH: B1 VH with F32H, Y60H, D62H, Y103H
VL: B1 VL with N52H, L53H, Q89H, Y93H
notes: H chain (c1) and L chain (c2)

kd(pH 5.8)/kd(pH 7.4) [3]: 2.59
kd(pH 5.8)/kd(pH 7.4) [4]: 2.59
pH-dependent binding (affinity ratio) relative to WT [5]: 15 times
KD(pH5.8)/KD(pH7.4) [6]: 41.3
B4: H3pI/L73 (antibody, IgG1, V domains shown)
VH: B6 VH with Y27H, D31H, Q33H, W35H
VL: B6 VL with D28H, Y32H, E53H, Q89G, S93R
notes: antibody expressed as IgG1; also called H3pI/L73-IgG1; H3pl/L73

kd(pH 5.8)/kd(pH 7.4) [3]: 7.18
kd(pH 5.8)/kd(pH 7.4) [4]: 7.18
B5: Fv2-IgG1 (antibody, V domains shown)
VH: B6 VH with D31H, Q33H, Y51H, S63H, K65Q, G66D, S99F, T103I, M106H, Y108H
VL: B6 VL with Y32H, E53H, Q89G, S93R
notes: also called VH1-IgG1/L82
